One experiment has as its target T1, ch-TOG(1517-1957) (UniProt Q14008 1517-1957).
T1 construct: source: recombinant, expressed and purified as stated in earlier work [11]
As to the kind of experiment: pull-down; His-NusA-TACC3(629-838) bound to Ni Sepharose beads and incubated with ch-TOG proteins; His-NusA as tag binding control. The conditions noted are these: both partners purified.

For experiment [1], the target named is T2, His-NusA-ch-TOG(1517-1957) wild type (UniProt Q14008 1517-1957).
T2 construct: held on Ni Sepharose beads by the His tag; source: recombinant, expressed and purified as stated in earlier work [11]; not shown: His, N-terminal, kept; NusA, N-terminal, kept
T2 sequence (Q14008 1517-1957): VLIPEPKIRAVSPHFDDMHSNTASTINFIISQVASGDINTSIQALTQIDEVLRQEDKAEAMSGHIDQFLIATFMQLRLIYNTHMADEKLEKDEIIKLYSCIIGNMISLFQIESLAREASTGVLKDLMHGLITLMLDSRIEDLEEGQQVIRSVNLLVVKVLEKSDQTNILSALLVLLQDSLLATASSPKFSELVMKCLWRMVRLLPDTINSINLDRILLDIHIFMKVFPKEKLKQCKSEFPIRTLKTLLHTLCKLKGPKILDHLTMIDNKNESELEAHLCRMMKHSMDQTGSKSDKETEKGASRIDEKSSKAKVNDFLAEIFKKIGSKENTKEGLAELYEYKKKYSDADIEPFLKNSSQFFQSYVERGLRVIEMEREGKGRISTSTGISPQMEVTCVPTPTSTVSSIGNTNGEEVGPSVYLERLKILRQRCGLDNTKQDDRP
As to the kind of experiment: pull-down; His-NusA-ch-TOG(1517-1957) wild type and mutant proteins bound to Ni Sepharose beads, then incubated with TACC3(629-838); SDS-PAGE and Western blot with anti-TACC3 TACC domain antibody; His-NusA as tag binding control. The settings on record: both partners purified.

Experimental findings from paper doi:10.1101/008359, “TACC3–ch-TOG track the growing tips of microtubules independently of clathrin and Aurora-A phosphorylation” (bioRxiv, 2014) are described below.

T1 sequence (Q14008 1517-1957): as above

B1: His-NusA-TACC3(629-838) (domain or fragment)
chain: not shown
notes: Held on Ni Sepharose beads by the His tag; source: recombinant, expressed and purified as stated in earlier work [11]; not shown: His, N-terminal, kept; NusA, N-terminal, kept
With B1, in the experiment with ch-TOG(1517-1957), the binding result is “binds”.

B2: TACC3(629-838) (domain or fragment)
chain: not shown
notes: source: recombinant, expressed and purified as stated in earlier work [11]
Regarding B2, the binding result in experiment [1] is listed as “binds”.
